Data published in patent publication US12655405B2, “Sequence specific degradation of single-stranded polynucleotides with CARD1 nuclease” (The Rockefeller University, priority 2020, dated 2026).

Assays:
Tresu_2185 (CARD1) = format: biochemical, Treponema succinifaciens
Method: (§1) The reactions were done in a reaction buffer (20 mM Tris-HCl, pH 7.5, 150 mM NaCl, 1 mM DTT, and 5 mM MnCl2, unless otherwise stated, with 250 nM CARD1 and 2.5 uM of cA4, with 2 μg M13 ssDNA (NEB) (FIG. 1b), 500 ng of non-linearized and linearized ΦX174 dsDNA (NEB) (FIGS. 1d, e, respectively) and 2 μg ΦX174 ssDNA (NEB) (FIG. 1a). cA4 and cA6 was obtained from Biolog Life Science Institute GmbH & Co. KG (Bremen, Germany). The reaction products were visualized by agarose gel electrophoresis. For the RNA oligo cleavage assay, 250 nM of a Cy3-labelled RNA oligo was added to the reaction. The reaction products were run on Mini-PROTEAN TBE-Urea precast gel (Bio-Rad), and visualized on a TYPHOON IMAGE SCANNER. For degradation of ssRNA or dsRNA ladders, 1 ug of either ssRNA ladder (NEB) or dsRNA ladder (NEB) was digested. The reaction products were visualized by agarose gel electrophoresis. At the indicated timepoints, all reaction were stopped by the addition of 25 mM of EDTA.

pTarget = test: Plasmid curing assay; format: cell-based, Staphylococcus aureus; settings: but not pCRISPR
Method: To assess CARD1's ability to promote plasmid curing under low transcription conditions, a plasmid curing assay was performed, by adapting a known approach. Briefly, overnight cultures of S. aureus cells harbouring pTarget and a pCRISPR containing either Csm6, dCsm6, or CARD1 were diluted to exactly OD 0.15 in tryptic soy broth with 10 ug/ml chloramphenicol. After removing a cell aliquot for the 0 timepoint, aTc was added to a concentration of 9.3 ng/ml (FIG. 4e) or 125 ng/ml (FIG. 4f) and the cells were incubated at 37° C., with further aliquots taken at the indicated times. The cells were then lysed, and the plasmid DNA isolated using a QIAprep Miniprep kit (Qiagen) according to the manufacturer's protocol (Qiagen). 400 ng of plasmid was then linearized using BamHI-HF (New England Biolabs), which cuts both pTarget and pCRISPR once, followed by visualization by gel electrophoresis.

ΦX174 ssDNA = test: Next-generation sequencing of ssDNA degradation products (ΦX174); format: biochemical
Method: (§2) To assess the ssDNA cleavage patterns of CARD1, 2 ug of ΦX174 virion DNA (New England Biolabs) or M13 ssDNA (M13mp18) (New England Biolabs) was first digested by 250 nM CARD1 with 2.5 uM of cA4 in a buffer consisting of 20 mM Tris pH 7.5, 150 mM NaCl, 1 mM DTT, and 5 mM MnCl2. At the specified time points, the reaction was quenched by adding 25 mM of EDTA. Half the reaction was visualized by agarose gel electrophoresis. The remaining digestion products from the 2 hour timepoint were purified by phenol chloroform extraction.
Without further fragmentation, the purified digested DNA was subjected to the Accel-NGS 1S Plus DNA Library Kit (Swift Biosciences), proceeding according to the manufacturer's protocol, using a 1.5× ratio of magnetic beads (AMPure XP beads by Beckman Coulter) to also include small DNA fragments. One of the library preparation steps involves the addition of on average 8 nucleotides to the 3′ end of the DNA. The 5′ end of the input DNA molecules remains unchanged. Paired-end sequencing was performed on an Illumina MiSeq. The 5′ end of each read R1 represents the start of a DNA molecule, and thus a CARD1 cut site. Using a custom python script, the location of 7,020,067 ΦX174 reads (mapping to Genbank reference NC_001422) and 7,670,616 M13 reads (mapping to Genbank reference X02513) was determined. To account for reads mapping at the circular junctions, 65 nucleotides of the first 5′ end of the maps were copied and added at the 3′ end of the maps. The DNA sequence 20 nucleotides upstream and downstream of the cut sites was extracted using a custom Python script, and the CARD1 cleavage motifs for ΦX174 and the M13 were determined separately using Weblogo3 (38), with basal nucleotide compositions determined by the compositions in each map (ΦX174 with A:24.0, C:21.4, G:23.3, T:31.3, and M13 with A:24.4, C:21.1, G:21.1, T:33.4). For the fragment size analysis, 8 nucleotides were removed from all the reads from the 3′ end pair mate by the “Trim Ends” option in the Geneious Bioinformatics Software platform (39). Using the STAR aligner (version 2.7.3) (40), 7,505,136 reads were successfully mapped to ΦX174, and 8,179,356 reads were successfully mapped to M13, using default arguments with the addition of --alignIntronMax 1 --alignMatesGapMax 6000 --peOverlapNbasesMin 5 --alignEndsProtrude 10 ConcordantPair.

M13 ssDNA = test: Next-generation sequencing of ssDNA degradation products (M13); format: biochemical
Method: as §2
Without further fragmentation, the purified digested DNA was subjected to the Accel-NGS 1S Plus DNA Library Kit (Swift Biosciences), proceeding according to the manufacturer's protocol, using a 1.5× ratio of magnetic beads (AMPure XP beads by Beckman Coulter) to also include small DNA fragments. One of the library preparation steps involves the addition of on average 8 nucleotides to the 3′ end of the DNA. […] The 5′ end of each read R1 represents the start of a DNA molecule, and thus a CARD1 cut site. Using a custom python script, the location of 7,020,067 ΦX174 reads (mapping to Genbank reference NC_001422) and 7,670,616 M13 reads (mapping to Genbank reference X02513) was determined. To account for reads mapping at the circular junctions, 65 nucleotides of the first 5′ end of the maps were copied and added at the 3′ end of the maps. […]

phage Φ12γ3 [1] = test: In vivo anti-phage immunity growth curves (Φ12γ3); format: cell-based, Staphylococcus aureus RN4220
Method: For in vivo anti-phage immunity, cells harbouring various pCRISPRs were launched in triplicate overnight, diluted 1:100, outgrown for about an hour, and normalized for OD. Cells were seeded into a 96 well plate. Phage Φ12γ3 (25) […] was added at the appropriate multiplicity of infection, and OD measurements were taken every 10 minutes.

S. aureus viability = test: CARD1 toxicity assay (cfu enumeration); format: cell-based, Staphylococcus aureus
Method: To measure the effect of CARD1 activity on S. aureus viability over time, colonies of S. aureus harbouring pTarget and the specified pCRISPR were launched in liquid culture overnight in triplicate. The next day, cells were diluted 1:100 and grown out for about an hour, and normalized for OD. One aliquot was taken from each culture, and then aTc was added to induce CRISPR targeting and CARD1 activity (to a concentration of 3 ng/ml in FIG. 4c or 125 ng/ml in FIG. 5c). At each timepoint, cell aliquots were removed, centrifuged, resuspended in media lacking aTc, and serial dilutions were plated on solid BHI agar plates with or without aTc. All viable cells should grow on the solid agar plates, but only targeting escapers (cells that recover due to mutations in pTarget or pCRISPR) should form CFUs on plates with aTc.

[2] = test system: recA, lexA, uvrA and umuC transcripts; test: RT-qPCR of SOS-induced genes; format: cell-based, Staphylococcus aureus RN4220; settings: after aTc induction; compared to d-CARD1; cells expressing Cas10HD
Method: Cells carrying pTarget and a pCRISPR containing either CARD1 or dCARD1 were grown overnight in triplicate, diluted 1/100 into fresh BHI with 10 ug/ml of chloramphenicol and outgrown for an hour. The cells were then diluted to an OD of 0.1. To induce targeting, aTc was added to a final concentration of 250 ng/ml. The cells were incubated with shaking for 20 minutes before being spun down at 6000×g for 5 minutes, and then lysed in PBS with 1 mg/ml of lysostaphin and 2 mg/ml of lysozyme for 10 minutes at 37° C. RNA was purified using Direct-zol RNA miniprep kit (Zymo Research) according to the manufacturer's protocol, followed by DNA depletion using TURBO DNA-free kit (Invitrogen) according to the manufacturer's protocol. To produce cDNA, approximately 2 ug of DNA-depleted RNA was treated using the SuperScript IV Reverse Transcriptase kit (Invitrogen) according to the manufacturer's protocol and random hexamer primers. The RT-qPCR reaction was performed using Fast SYBR Green Master Mix (Life Technologies) with an input of about 100 ng cDNA, in biological triplicate, using […] of each primer, on a QuantStudio 3 qPCR machine (Thermo Fisher). The housekeeping gene rho was used as an internal normalization control (37).

[3] = test system: ssRNA ladder, dsRNA ladder; test: Degradation of ssRNA or dsRNA ladders; format: biochemical; settings: 15 minutes
Method: as §1

[4] = test system: circular ΦX174 and M13 ssDNA; test: In vitro DNA cleavage assay, agarose gel; format: biochemical
Method: as §1

[5] = test system: RNA oligos with either 15 adenines, uracils, or cytosines; settings: 5′ fluorophore and 3′ quencher; 15 A, U or C
Method: For determining the nucleotide cleavage preference of CARD1, the reaction was performed as above, with 1 uM of each RNA oligo (IDT). […] Fluorescent measurements were taken in a TECAN plate reader, using values from when the reaction was complete. 0.5 ul of RNaseI (Thermo Fisher Scientific), which cuts next to all RNA nucleotides, was used as a positive control.

phage Φ12γ3 [6] = test: Liquid anti-phage infection, PFU counts over time; format: cell-based, Staphylococcus aureus RN4220
Method: To obtain CFU and PFU counts over time from cultures infected with phage, RN4220 cultures harbouring various pCRISPRs were launched overnight, diluted 1:100, and outgrown for about one hour. Cells were then infected with phage Φ12γ3 at an MOI of 10, and an aliquot was taken shortly after to obtain PFUs at time 0. The cultures were then incubated further, with aliquots taken at 1 and 4 hours.

[7] = test system: Staphylococcus aureus RN4220; test: Growth curves, in vivo CARD1 toxicity induction; format: cell-based; settings: pTarget + pCRISPR variant, no antibiotic selection of pTarget
Method: For in vivo CARD1 toxicity induction, triplicate RN4220 overnight cultures harbouring pTarget and a pCRISPR are diluted 1:100, outgrown for about an hour, and normalized for OD. Cells are then seeded in a 96 well plate. To induce targeting, 6.25-12.5 ng/ml of anhydrotetracycline (aTc) is added to the appropriate wells. Absorbance at 600 nm is then measured every 10 minutes by a microplate reader (TECAN Infinite 200 PRO). To analyze targeting escapers, cells from the end of the experiment (either cells from wells without aTc, i.e. naïve cells, or cells from wells that recovered later in the time course due to CARD1 toxicity) are re-streaked on BHI agar plates, and individual colonies were launched in liquid culture, diluted the next day, and used for a new time course experiment. From these overnight cultures, plasmid DNA was isolated (QIAgen Spin Miniprep Kit), digested by BamHI-HF (single-cutter for both pTarget and pCRISPR) (New England Biolabs), and visualized by gel electrophoresis. The deletion of important features in pTarget (making it unable to be targeted by pCRISPR) or pCRISPR was confirmed by Sanger sequencing.

[8] = ORF9 and ORF27 transcripts targeted

In the case of Cyclic Tetra-Adenylate [cA4], the “degradation of RNA oligo by CARD1 in the presence of the cyclic oligoadenylate” value (Tresu_2185 (CARD1); 60 nucleotide RNA oligo) is reported as “degraded in the presence of cA4”, the “degradation of ssDNA by Tresu_2185 on addition of the cyclic oligoadenylate” value (Tresu_2185 (CARD1); circular ΦX174 and M13 ssDNA, 250 nM CARD1, 2.5 uM cA, 5 mM MnCl2, agarose gel) is reported as “resulted in the degradation of circular ΦX174 and M13 ssDNA” and the “cleavage of dsDNA by Tresu_2185 on addition of the cyclic oligoadenylate” value (Tresu_2185 (CARD1); supercoiled or linearized ΦX174 dsDNA) is reported as “did not promote cleavage”.

B1: CARD1: cA4-activated ssDNA and ssRNA nuclease of Treponema succinifaciens, SEQ ID NO:1; N-terminal CARF domain, C-terminal REase domain (protein, listed as Treponema succinifaciens)
chain: MKETILVNLVSEQTIPNVQFIKWYFNKKQTPMKILLVSTKEMEQKEKSLFIKNALHFSDSFVEWETIHTDGNDISKTENILTDYFRDNEYKNIIVNITGGTKIMSLAAFDFFNNKPNTEIFYQPIGKELQELYPNKQKYDMFEVLSLKEYLDAHGISYKYDNECVKDWNYNKTVYDLCVADNRELIKGMIALQNNSYFNNVYKRKDFLDFTQIEEEKFIAINHPAATKENMIKILQIFGFDVSRIEHKHIRYITGGWFEEYVYQKICNEYHNVDEKNVALNVTIQKGNDKNELDVIYLDKDNKLHVIECKSFVDGNEGNRVLNDALYKLQAIIKSKFGLYVKQHLYTKSIIEKETPLNRAKEFGIDIKDGTQL
With B1 the “time after addition of the inducer at which pTarget was cleared” value (pTarget) was 20 minutes, the average product size (ΦX174 ssDNA; stated for both ΦX174 and M13 ssDNA degradation products) was ~150 nucleotides and the cleavage site preference (ΦX174 ssDNA; stated for both ΦX174 and M13 ssDNA degradation products, WebLogo) was “preferentially upstream of T(A/G) sites”. The “cuts that occur at the 25 most frequent positions” value (ΦX174 ssDNA; ΦX174, 5′ end mapping, 2 hours timepoint) was 26.7%, the “average fragment length of degradation products” value (ΦX174 ssDNA; ΦX174, 2 hours timepoint) was 163.6 nucleotides and the “cuts that occur at the 25 most frequent positions” value (M13 ssDNA; M13, 5′ end mapping) was 31.1%. The “average fragment length of degradation products” value (M13 ssDNA; M13, 2 hours timepoint) was 150.1 nucleotides, the “immunity in cells that express Cas10^HD” value (phage Φ12γ3 [1]; [8]) was “able to provide immunity” and the “need of CARD1 nuclease activity for immunity, early target” value (phage Φ12γ3 [1]; early ORF9 transcript of Φ12γ3 targeted) was “not required for immunity”. For the same molecule, the “survival of cultures after infection, late target” value (phage Φ12γ3 [1]; late ORF27 transcript of Φ12γ3 targeted) was “able to survive infection”, the “fraction of colonies formed in the absence of aTc that come from bona fide dormant cells” value (S. aureus viability; compared with colonies resistant to aTc (escapers)) was “approximately half” and the “colony counts (viable cells) after CARD1 induction” value (S. aureus viability; three hours of target transcription, plated on media lacking aTc) was “initial decrease in colony counts of an order of magnitude”. For the same molecule, the “expression of recA, lexA, uvrA and umuC (SOS response), normalized against rho” value [2] was “significant increase”, the “degradation of single-stranded versus double-stranded RNA” value [3] was “Single-stranded RNA, but not double-stranded RNA, was degraded” and the “nuclease activity on ssDNA” value ([4]; ΦX174 and M13 ssDNA, smear of products) was “cA4-activated, non-specific ssDNA nuclease”. The “cation requirement of ssDNA degradation” value ([4]; ΦX174 ssDNA, with or without MnCl2) was “required the addition of Mn cation”, the “degradation of homopolymer RNA oligos (sequence preference)” value [5] was “able to efficiently degrade RNAs consisting of all three bases” and the “phage titer in cultures of cells that express Cas10^HD” value (phage Φ12γ3 [6]; [8]) was “reduce the phage titer”. The “phage propagation (pfu) at different times after infection” value (phage Φ12γ3 [6]; ORF27 transcript of Φ12γ3 targeted) was “effectively eliminated Φ12γ3 from the culture” and the “growth of cultures (OD600) after addition of aTc” value [7] was “severe growth defect”.
